From patent US20260092116A1 (DARTSBIO PHARMACEUTICALS, published 2026) come the findings set out here.

The target of assay [1] is T1, B7H3 antigen (huB7H3 antigen) (human, UniProt Q5ZPR3 29-461, limits assumed).
T1 sequence (looked up): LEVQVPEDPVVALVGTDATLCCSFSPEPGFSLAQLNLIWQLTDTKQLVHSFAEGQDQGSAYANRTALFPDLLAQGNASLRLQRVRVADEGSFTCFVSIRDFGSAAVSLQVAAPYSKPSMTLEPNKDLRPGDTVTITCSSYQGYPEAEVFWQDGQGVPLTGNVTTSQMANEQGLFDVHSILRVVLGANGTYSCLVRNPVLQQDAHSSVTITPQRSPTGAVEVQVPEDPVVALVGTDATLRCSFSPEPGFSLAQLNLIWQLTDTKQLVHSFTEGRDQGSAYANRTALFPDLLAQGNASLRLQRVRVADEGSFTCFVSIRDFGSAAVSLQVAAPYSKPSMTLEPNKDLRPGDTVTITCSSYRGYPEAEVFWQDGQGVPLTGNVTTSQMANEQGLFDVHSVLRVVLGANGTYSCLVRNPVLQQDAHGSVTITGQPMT
Kind of assay: BLI, VHH-Fc (100 nM) captured on Protein A probe, B7H3 antigen from 200 nM in 2-fold dilutions. The protocol: The above phage clones were sequenced to obtain the B7H3 VHH gene sequence, and its C-terminus was fused with the human Fc protein gene to construct and express B7H3-Fc. 100nM of B7H3 VHH-Fc was captured by the biolayer interferometry method using the Protein A probe and bound to B7H3 antigen with an initial concentration of 200 nM, a 2-fold dilution. The KD value of the antibody binding to antigen was calculated.

Assay [2] deals with T2, his-tagged human B7H3 antigen protein (human, UniProt Q5ZPR3 29-461, limits assumed).
T2 construct: also called B7H3-his; CD276; not shown: his tag
T2 sequence (looked up): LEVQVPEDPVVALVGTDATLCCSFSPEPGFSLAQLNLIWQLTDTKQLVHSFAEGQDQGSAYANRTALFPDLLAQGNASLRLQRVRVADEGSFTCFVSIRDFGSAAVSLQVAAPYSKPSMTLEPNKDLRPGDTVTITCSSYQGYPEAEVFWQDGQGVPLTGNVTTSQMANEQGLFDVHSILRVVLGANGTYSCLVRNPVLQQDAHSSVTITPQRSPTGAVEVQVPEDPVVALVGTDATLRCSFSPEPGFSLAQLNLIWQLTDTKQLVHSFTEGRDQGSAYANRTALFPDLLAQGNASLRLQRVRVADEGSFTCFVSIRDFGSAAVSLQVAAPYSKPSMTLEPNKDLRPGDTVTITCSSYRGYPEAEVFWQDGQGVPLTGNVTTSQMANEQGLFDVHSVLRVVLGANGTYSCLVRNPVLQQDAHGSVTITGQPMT
Kind of assay: binding ELISA, plate coated with his-tagged B7H3 at 2 ug/ml. The protocol: (§1) A 96-well ELISA plate was coated with 2 μg/ml of his-tagged PDL1 or B7H3 antigen protein at 4° C. overnight, and 100 μl of Casein blocking solution was added to each well the next day for blocking at 37° C. for 1 hour. […] After incubation at 37° C. for 1 hour, unbound antibodies were washed off with 0.1% PBST, and bound antibodies were detected using horseradish peroxidase (HRP)-conjugated goat anti-human IgG (H+L) antibody (Jackson ImmunoResearch, USA), and 50 μl of 3,3′,5,5′-tetramethylbenzidine substrate (TMB) was used for color development. After standing for 5 minutes, 50 μl of 2 M sulfuric acid was added to stop the color development, and then the absorbance was detected using a SpectraMax M5e (Molecular Devices) microplate reader at OD450 nm. The antibody concentration was plotted against the OD450 reading using a 4-parameter fitting method, and the EC₅₀ was calculated.

In assay [3] the target is T3, his-tagged human PDL1 antigen protein (human, UniProt Q9NZQ7 19-238).
T3 construct: also called PDL1-his; not shown: his tag
T3 sequence (Q9NZQ7 19-238 limits assumed): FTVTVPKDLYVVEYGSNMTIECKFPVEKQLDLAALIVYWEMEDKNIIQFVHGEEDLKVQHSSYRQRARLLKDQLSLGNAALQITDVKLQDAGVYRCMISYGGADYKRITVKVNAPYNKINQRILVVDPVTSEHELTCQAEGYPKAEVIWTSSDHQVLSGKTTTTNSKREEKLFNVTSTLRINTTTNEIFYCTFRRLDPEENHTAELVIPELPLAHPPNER
Kind of assay: binding ELISA, plate coated with his-tagged PDL1 at 2 ug/ml. The protocol: as §1

Assay [4] has as its target T4, biotinylated PDL1 antigen (human, UniProt Q9NZQ7 19-238, biotinylated (sites not given)).
T4 construct: also called human PDL1 (biotinylated)
Description: flow cytometry, blocking of biotinylated PDL1 (50 nM) binding to CHO-PD1 cells. The protocol: The mixed solution was then incubated with the cells at 4° C. for 45 minutes, and unbound antigens were washed off with PBS.
The cells were then fluorescently stained with PE-streptavidin. Finally, the mean fluorescence intensity (MFI) of the PE channel in the flow cytometer was read, the antibody concentration was plotted against MFI, and the IC₅₀ of the antibody was calculated using a four-parameter fitting.

Assay [5] has as its target T2, his-tagged human B7H3 antigen protein. Kind of assay: ELISA on coated B7H3-his, bispecific antibody after 1 hour at 60°C. The protocol: as §1
For assay [6] the target is unchanged. Description: ELISA on coated B7H3-his, bispecific antibody not heat-treated (4°C). The protocol: as §1
Assay [7] concerns the target T3, his-tagged human PDL1 antigen protein. Kind of assay: ELISA on coated PDL1-his, bispecific antibody after 1 hour at 60°C. The procedure: as §1
Assay [8] concerns the target T2, his-tagged human B7H3 antigen protein. Description: BLI (Octet), antibody on Protein A probe, B7H3-his from 200 nM in 2-fold dilutions. The protocol:
(§2) Kon and Koff values were calculated using the software provided by the supplier to obtain the KD value of the antibody.

Assay [9] deals with T3, his-tagged human PDL1 antigen protein. Description: BLI (Octet), antibody on Protein A probe, PDL1-his from 200 nM in 2-fold dilutions. The protocol:
as §2

Assay [10] has the same target. Kind of assay: ELISA on coated PDL1-his, bispecific antibody not heat-treated (4°C). The protocol: as §1

T4 sequence (Q9NZQ7 19-238 limits assumed): as above

B1: B7H3 VHH-Fc (humanized anti-B7H3 VHH 75-16 fused to human Fc) (Fc fusion)
chain: DVQLQESGGGLVQAGGSLRLSCTASGYTLSTIWIGWFRQAPGKGLEGVAAIYIGSGATYYVDSVKGRFTISQDNAKNTVYLQMNSLKPEDTAMYYCAATGGTVGSMVRFSPVGDFGYWGQGTQVTVSS
notes: also called B7H3-Fc; not shown: human Fc fused to the C-terminus of the VHH
The molecule B1 gave a Kd in assay [1] of 3.24 nM. Besides, the midpoint of the response in [2], the EC50, lay at 0.0251 nM.

B2: PDL1 monoclonal antibody (antibody, human IgG1, kappa, V domains shown)
VH: QVQLVQSGAEVKKPGASVKVSCKASGYTFTTFGVHWVRQAPGKGLEWVGIIWPGGNTNYNSALMSRVTITADESTSTAYMELSSLRSEDTAVYYCARENYGRAMDYWGQGTTVTVSS
VL: DIQMTQSPSSLSASVGDRVTISCRASQSINTYLHWYQQKLGQAPRLLIYYASQSISGVPSRFSGSGSGTDFTLTINSLEAEDAATYYCQNGHSFPLTFGAGTKVEIKR
notes: Parental humanized IgG1 of the bispecific antibody; also called PDL1 hIgG1 humanized monoclonal antibody
B2 had an EC50 in assay [3] of 0.441 nM. The same molecule registered a 50% inhibitory concentration (IC50) in assay [4] of 94.2 nM.

B3: B7H3/PDL1 bispecific antibody (bispecific antibody, human IgG1, kappa)
heavy: not shown
light: DIQMTQSPSSLSASVGDRVTISCRASQSINTYLHWYQQKLGQAPRLLIYYASQSISGVPSRFSGSGSGTDFTLTINSLEAEDAATYYCQNGHSFPLTFGAGTKVEIKRTVAAPSVFIFPPSDEQLKSGTASVVCLLNNFYPREAKVQWKVDNALQSGNSQESVTEQDSKDSTYSLSSTLTLSKADYEKHKVYACEVTHQGLSSPVTKSFNRGEC
notes: Anti-PDL1 hIgG1 with one anti-B7H3 VHH (75-16) at the C-terminus of each heavy chain's Fc; also called IgG-VHH2
Regarding B3, the concentration for a half-maximal effect (EC50 (read off the curve)) in [5] was about 0.02 nM; in [6], about 0.02 nM; in assay [7], about 0.04 nM; in assay [10] it was about 0.04 nM. Further, the Kd in [8] is 8.11 nM; in assay [9], 0.585 nM. For the same molecule, the EC50 in assay [2] was determined as 0.0411 nM; in assay [3], 0.306 nM. The same molecule came in with an IC50 in assay [4] of 106 nM.

B4: Enoblituzumab (MGA271) (antibody, V domains shown)
VH: EVQLVESGGGLVQPGGSLRLSCAASGFTFSSFGMHWVRQAPGKGLEWVAYISSDSSAIYYADTVKGRFTISRDNAKNSLYLQMNSLRDEDTAVYYCGRGRENIYYGSRLDYWGQGTTVTVSS
VL: DIQLTQSPSFLSASVGDRVTITCKASQNVDTNVAWYQQKPGKAPKALIYSASYRYSGVPSRFSGSGSGTDFTLTISSLQPEDFATYYCQQYNNYPFTFGQGTKLEIKR
For the molecule B4, the midpoint of the response in [2], the EC50, lay at 0.0548 nM.
